# According to IntAct's records for PubMed 24141193:
# B1: Protein kinase doc (Escherichia phage P1), Q06259 (parent)
# chain: MRHISPEELIALHDANISRYGGLPGMSDPGRAEAIIGRVQARVAYEEITDLFEVSATYLVATARGHIFNDANKRTALNSALLFLRRNGVQVFDSPELADLTVGAATGEISVSSVADTLRRLYGSAE
# Variants of: B1
# Conditions: with eftu1_ecoli tufA
row,Variant,effect of a mutation on the interaction
1,MRHISPEELIALHDANISRYGGLPGMSDPGRAEAIIGRVQARVAYEEITDLFEVSATYLVATAGGHIFNDANKRTALNSALLFLRRNGVQVFDSPELADLTVGAATGEISVSSVADTLRRLYGSAE,disrupting interaction strength
